{"source": "paper PMC4926178", "about": "(Viruses, 2016)", "molecules": {"B1": {"name": "wild-type Cyanovirin-N (WT CV-N), P81180 1-101 (natural protein)", "chain": "LGKFSQTCYNSAIQGSVLTSTCERTNGGYNTSSIDLNSVIENVDGSLKWQPSNFIETCRNTQLAGSSELAAECKTRAQQFVSTKINLDDHIANIDGTLKYE", "modifications": "here or on the partner: glycosylated (oligomannose glycans; about 25 sites per monomer)"}, "B2": {"name": "wild-type Cyanovirin-N (WT CV-N) (natural protein)", "chain": "LGKFSQTCYNSAIQGSVLTSTCERTNGGYNTSSIDLNSVIENVDGSLKWQPSNFIETCRNTQLAGSSELAAECKTRAQQFVSTKINLDDHIANIDGTLKYE"}}, "experiment_in_all_cases": "ELISA", "key": {"[1]": {"target": "glycosylated soluble gp120 (rgp 120 HIV-1 MN, baculovirus) (HIV-1 MN) (UniProt P05877)"}, "ribonuclease B": {"target": "T1, ribonuclease B (UniProt P61823 27-150)", "T1 construct": "also called RNase B", "T1 sequence (looked up)": "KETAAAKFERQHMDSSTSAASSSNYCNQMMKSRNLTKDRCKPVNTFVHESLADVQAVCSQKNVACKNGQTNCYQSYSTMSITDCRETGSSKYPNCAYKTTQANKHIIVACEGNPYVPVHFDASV"}, "[2]": {"target": "glycosylated soluble gp120 (rgp 120 HIV-1 MN, baculovirus) (HIV-1 MN), P05877", "settings": "remark: other sources report otherwise"}}, "note": "Like-named read-outs stand apart in the source and are kept apart here.", "data": [{"molecule": "Nested Cyanovirin-N (Nested CV-N) (from UniProt P81180 1-50; P81180 1-101) (designed binder)", "values": [{"measurement": "EC50", "setting": "[1]", "value": 1.29, "unit": "nM"}, {"measurement": "EC50", "setting": "ribonuclease B", "value": 13, "unit": "nM"}]}, {"molecule": "B1", "values": [{"measurement": "EC50", "setting": "[2]", "value": 1.66, "unit": "nM"}]}, {"molecule": "B2", "values": [{"measurement": "EC50", "setting": "ribonuclease B; both partners purified", "value": 17, "unit": "nM"}]}]}
